Measured values: patent US20220162314A1

Biological target: Recombinant human CD8ab protein (extracellular domains of CD8a and CD8b with leucine zippers and tags) (human) (UniProt P01732)
Test: ELISA: antigen coated on the plate, antibody titrated, anti-IgG (Fc)-HRP and TMB, A450

Sequence of Recombinant human CD8ab protein (extracellular domains of CD8a and CD8b with leucine zippers and tags) (human) (P01732 22-182, chain 1 of 2): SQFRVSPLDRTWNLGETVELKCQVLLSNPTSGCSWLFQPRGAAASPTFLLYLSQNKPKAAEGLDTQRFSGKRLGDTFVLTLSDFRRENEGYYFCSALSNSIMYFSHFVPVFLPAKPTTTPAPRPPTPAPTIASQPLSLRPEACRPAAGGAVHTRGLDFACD
Sequence of Recombinant human CD8ab protein (extracellular domains of CD8a and CD8b with leucine zippers and tags) (human) (P10966 22-170, chain 2 of 2, further chain): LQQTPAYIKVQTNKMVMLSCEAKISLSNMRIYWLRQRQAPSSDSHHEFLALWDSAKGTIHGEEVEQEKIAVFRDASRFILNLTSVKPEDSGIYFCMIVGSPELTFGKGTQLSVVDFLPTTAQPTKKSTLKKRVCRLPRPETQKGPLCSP

EC50 (read off the curve): 0.2 nM
B1: xhCD8a1 (clone OKT8, Invitrogen) (antibody, from another filing, V domains shown)
VH: EVQLQQSGAELVKPGASVKLSCTASGFNIKDTYIHFVRQRPEQGLEWIGRIDPANDNTLYASKFQGKATITADTSSNTAYMHLCSLTSGDTAVYYCGRGYGYYVFDHWGQGTTLTVSS
VL: DVQINQSPSFLAASPGETITINCRTSRSISQYLAWYQEKPGKTNKLLIYSGSTLQSGIPSRFSGSGSGTDFTLTISGLEPEDFAMYYCQQHNENPLTFGAGTKLELK
